# Experimental data from the DeepSol protein solubility set.
# Assay: soluble on expression in E. coli; label from the status in PepcDB or PDB records
row,Sequence,soluble on expression in E. coli
1,MTEKQFKLTVQDNTNIEVKVNFTDVDSKGIIHIFHGMAEHMERYDKLAHALSKHGFDVIRHNHRGHGINIDESTRGHYDDMKRVIGDAFEVAQTVRGNVDKPYIIIGHSMGSVIARLFVETYPQYVDGLILSGTGMYSLWKGLPTVKVLQLITKIYGAEKRVEWVNQLVSNSFNKKIRPLRTQSDWISSNPIEVDNFIKDPYSGFNVSNQLLYQTAYYMLHTSQLKNMKMLNHAMPILLVSGYDDPLGDYGKGILKLANIYRKAGIKNVKVNLYHHKRHEVLFEKDHDKIWEDLFKWLNQFYKK,not soluble
2,MQSYTNRICAVCGDTPAKIHYGVLACFGCKGFFRRAVKDGRNKYVCRFEKNCEVTKFERNACRYCRFRKCLLVGMNPDYVRPDREKSKKGKTVLSKKKSVSRSLSYRLADPSDWTSFLSPSSRKQLSEIGKLAETCSTSTNFDGIGNFSLKSLIADRSLARKTGDSEAMDCSNSPRQLNEQFLGIERIVQCVDYIDRFLVMLEEEHCRKFSVEDKSALISDTMIHLLLFESTSRFVAKGAPGLEDLKLSLAQLPICTTHLTQKIADVFETYLRKPPSIIEYSVLKAYIVLSAESTVLSNSLNESLSLARENLSELLFKVIKHSRNKTSISAANSLSTILHFVYESRNLASRIRQSQQPFFVRDSDPKIPFHKILTDIINPEVSDLLLTTANCRKLSTQMGSSLSSVPPVPPPSDTVPLFHFSPPSLSPCQISAPPPPQQQYTDYSQMPSTSSYPANSSPFQSPYRPNSLSSFPKIPLEMTKSIEEFLRPNGMTTDEMNKPLEKNWADGFRLTPVFNKDIVSQFFPELSNINQHHPF,not soluble
3,MAHHHHHHMIPHICVNAANYSHTQFEECLTHMCDLSEELSAFKRTAVSLKRQATGDAETSKLALQYMEEALEKVLHVTQGVKEGNKTIGTAAAVKKSVIEAKIASDIADEEASKVERKLDKATRDAGNAEKNLQRILIYTARKACSSEGISSQDEEVKEAQCNVSTEIVYSCTRRPLKIKSDTLRKTYERLKSFTRTPNKTINEHLPKCHMWTELLEPAVASLTDMEKSASVARAYRNQVIKARGEAQQAAWTVGVTVQDVDGLDEVSEEDDFALAPVVLVAVLIVGAVLIDQHP,not soluble
4,MRVVVVGTRGSALALAQTRFVVERLKETWPETEFKIRTIKTRGDQGASPREEAIFVKEIQEALLSREIDIAVHSLKDLPTESPRGLKIASVPRRQDPRDVFLGKAAKRLKDLPPGAVVGTSSVRRKAQILALRPDLVVRDLRGNVDTRLAALGNGEYDGIVLAAAGLIRLDLRNRIDEFLDPGEVLPAPGQGALALEVREGDDLAEELCYALHHPPSYHRVRAERAFLRGLGAGCLAPVGALAHVEEDGTLRLEGVLLTPDGKSFIRAEIEGDVSEAEELGLDLARDVLEQGGREILAQIR,soluble
5,MGSDKIHHHHHHMYPQRIEPQPGQESVWDYPRPPRLEDTSKHIQIIFNGVIIADTQNAKRVLETSHPPSYYIPPGDIKMEHLIPTPQSSFCEWKGLAGYYTIRVGDKEVQNAAWFYPNPTTAFASLRDHVAFYAHLMDACYVDGDQVEPQPGNFYGGWITKDVVGPFKGIPGSWGW,not soluble
6,MEPTENLDVCLATLRDTDRDRYLACLLSPADKRNALAALYAFNAEIARIRDSVREALPGEVRMQWWRDLVDGNPHGDSQSHPVAAALLTTIEHYRLPRPVLGNMIEARIFDLYDDLFEDRNALEGYAGETASALIQLASLVLSAEDAAHSAEAAGHAGVAQAMAGMLLLMPLHRRRGQVYIPADMLAAAGLDRETFLAGQDRQRIGIAVEIFAAHALDHIEKARRATISKNLFAAYLPVALSGPVIAAARKAGAGVFDGDLQLSQLRRQWLLAKASFLKRF,not soluble
7,MSDRGRTLMVQGTTSDAGKSTLVTALCRWLARRGVAVVPFKPQNMALNSAVTADGGEIGRAQAVQAQACRLAPHTDMNPVLLKPNTDIGAQVIIHGRAVTSMDAAAYHDYKRVAMEAVLASHGRLAAAYRVVMVEGAGSPAEINLRANDIANMGFAEAVDCPVILVADIDRGGVFAHLVGTLELLSDSERERVKGFVINRFRGDIALLQPGLDWLEARTGKPVLGVLPYVSDLHLEAEDAIDTRQAAKVGPRLKVVVPVLPRISNHTDFDPLRLHPQVELSFVGPGQALPSADLIVLPGSKSVRADLAALRERGWDEAILRHLRYGGRLLGICGGLQMLGERLHDPLGLEGAAGSSAGLGLLALETTLEADKQLRNVQGRLSLEDAPLSGYEIHAGVTRGEALARPAVVLDDGRADGARSVDGNVMGTYLHGLFESTAACSALLRWAGLREVQAVDYQALRERDIERLADLVERHLDTGRLLALCGEPH,not soluble
8,ILLVHGSGYGGWCWDATIRALAAHGARARALDLPGRIFTPGLSLADHAAAILQEIRAPVTLVGHSAGGFSIAAAAEAAAPGLIERLIFLCAYAPRDGASVASMRRAQARQPLRPAIRLAPDRLSYSFDPDLAGEALFHDCPPEVRAAALARMGAEPVGPQEERIRLSARYHALPKHYIRCLEDRAIPPETQEAMTADWPAGSVSTLPAGHSPFLSCPEALAKRLISVAAN,not soluble
9,MDDATKSSLKAIPLCKTKASPRDGDLWIERLKEEYEAIIAAVQNNKDCDRDWFQLESNERGTKWFGKCWYFHNMVKYEFDVEFDIPITYPVTAPEIALPELDGKTAKMYRGGKICLSEHFKPLWARNTPKFGIAHAFALGLGPWMAVEIPDLIEKGLIQPKA,not soluble
10,MSIINDENGRGYKVHLCKTNIAQNNNKFYDMELLDEGGDFIVKLINGRIGYRGVTQLKDFDDLDRAKKFFESKFYEKTHLHWEERDDEPVPNKYAVVELATNARQTEKEVKKEEPEPEPKVDEKNTRGRKKRGIVKEKKEIKKEEEPVEEVNEKLKELMKCICDEDVHLGLLKQLKFNEAFGRPIDCLSLAQLTTGYEILSKIEESIGGKSARRSTRGRPRVADRVLAVKSDGPSLHDINKYYSLIPHSFGFCVPPKIDSHAKIQAERELLDALKGSIEASLELKDLKKTASSKDIYQRLYERLPCHLEPVSEEIAGKIGDCLAMRGPTHCYKLSLIDAFELKDPNEIPTEAPVEVQEVPKKRGRKSTKTAAPTVPPPTTKRLLWHGTRVTNVFSILMNGLQFPVGDRCGLMFGNGVYFANVPTKSANYCCPEASKRVFMLLCEVETANPLVLYESEIDADEKMEKAKKTSVYAAGKHTPRDTVEINGIPAFKSNLETIEEETRLLYDEYVMFNKEHFKIKYVVEVKVDRLTAKEMMA,not soluble
11,MLRFYAMKQITEPGTYEIRGEVAEGDFSWDATNFAGFFYDVNDDVSTESLTVTGLNGGNVIPEGGLVYETTIQMVDYEYSKPSVGWDQFPVLGFFAEEYIPINADKADKLAKLVLDSDDKYTIRTGEQLDLGEGYAIEAKQVDVDGEKVWLEFTKDGEFVDDEIISVVSGSDNTWEVELDDIQDEDDVVVLRVHVNQVFQGAVDSIAQIEGIWLIDYANAMKIESDDEFGDLDNVKINGATLTITNEDTFTLTRDDEVEIGQGMFFKVADTAASDLRYYPFVEKTIDGEVVDDDEDDDNVTEPVDNDTEVEEPTEEPTEGPTEELEHHHHHH,not soluble
12,MHMEDFIQFFSGSNLSIDKANFDQFGLKAKIKHYQKGQLLITQGQPAPKLFFLIKGMVRYMSVSATGKEFTQSFAFAPGISGSTRAMTRNANALFSIEALDDVICLEFEWHVFFDQMQSQPGFLAAYNRLLENMFIKKEEREFAFVQQSAEQRYLTFLDMNPQLRDKISLKMIASHIGITPIALSRIRNKLK,not soluble
13,MGLQSLKEPVENSVQDEFSHFWSQHGEWVEEPNVRRGGESGVQRLVMDNGQTLYAKRQTGHIYRSLLHPLGRPTVLREREALEGLRKLGVVVPEVVFCGAERGEDNAWRALLVTVALDGFDEIEKWLAAGGRERHGELFYERMLKEVASTLARMHLGRWQHSCLYIKHVFVRVTGDGPDAKVEVALLDLEKGRRRLTAQGAAQHDMKQLRRHSSFSAADWQKLVYFYQTAFGSSIKGLES,not soluble
